From PMC6457909 (Science (New York, N.Y.), 2019)

Molecular target: H5N1 A/Vietnam/1203/2004 hemagglutinin, trypsin-cleaved (HA1/HA2), as crystallised with JNJ4796 (influenza A virus H5N1 A/Vietnam/1203/2004) (UniProt Q5EP31)
Test: crystal structure

H5N1 A/Vietnam/1203/2004 hemagglutinin, trypsin-cleaved (HA1/HA2), as crystallised with JNJ4796 (from UniProt Q5EP31 1-568; Q5EP31 1-568) (natural protein)
stoichiometry N: 3
